According to paper PMC12802955:

Molecular target: H234A mutant of SARS-CoV-2 nsp15 with an N-terminal Strep-Tag II (SARS-CoV-2)
Assay: cryo-EM structure

“H234A mutant of SARS-CoV-2 nsp15 with an N-terminal Strep-Tag II (enzyme)” gave a stoichiometry N of 6.
